Laboratory results reported in publication PMC7892883, “Transcription activation by a sliding clamp” (Nature Communications, 2021).

Columns and labels:
[1] = biological target: T1, E. coli RNA polymerase β′ subunit (E. coli, UniProt P0A8T7 1-1407); assay: cryo-EM structure; 0.8 uM E. coli RNAP incubated with 0.8 uM gp55, 0.8 uM gp33 and 0.8 uM gp45 homotrimer 10 min on ice, then with nucleic acid scaffold, gp44/gp62 complex, gp32 and dATP 20 min at 30 °C in transcription buffer; 3D classification gave RPo-gp55 (3.6 Å) and TAC-gp45 (4.5 Å); promoter DNA present; details: both partners purified
T1 construct: RNA polymerase β′ subunit, E. coli; Stood in the structures as a subunit of RNAP core; also called RNAP β′ subunit; source: E. coli BL21(DE3) with plasmid pIA900, purified as part of RNAP core enzyme

[2] = biological target: T2, E. coli RNA polymerase β subunit (E. coli, UniProt P0A8V2 1-1342); assay: as above; details: both partners purified
T2 construct: RNA polymerase β subunit, E. coli; holds the β flap with the flap tip helix (FTH); Stood in the structures as a subunit of RNAP core; also called RNAP β subunit; source: E. coli BL21(DE3) with plasmid pIA900, purified as part of RNAP core enzyme

[3] = biological target: E. coli RNA polymerase core;gp55 H154X (C-terminal region truncated) (Escherichia coli;bacteriophage T4, UniProt P0A7Z4;P0A8V2;P0A8T7;P0A800;P04524 1-329;1-1342;1-1407;1-91;1-153, |); assay: EMSA; heparin 0.1 mg/ml challenge; forms RPo as effectively as full-length gp55; EMSA: 0.4 uM gp55, 0.2 uM RNAP, 0.2 uM DNA in 10 mM HEPES pH 7.5, 50 mM KCl, 5% glycerol, 0.1 mg/ml heparin; DNA 20 min at 37 C, heparin 1 min at 22 C; 5% PAGE; details: protein: recombinant;recombinant; tags: beta' C-terminal His tag (stated for pull-down);none stated; chain copies: 2;1;1;1;1; label: none (gel stained); blunt

B1: bacteriophage T4 gp55 (promoter specificity factor) (natural protein, UniProt P04524 1-185, looked up)
chain: MSETKPKYNYVNNKELLQAIIDWKTELANNKDPNKVVRQNDTIGLAIMLIAEGLSKRFNFSGYTQSWKQEMIADGIEASIKGLHNFDETKYKNPHAYITQACFNAFVQRIKKERKEVAKKYSYFVHNVYDSRDDDMVALVDETFIQDIYDKMTHYEESTYRTPGAEKKSVVDDSPSLDFLYEAND
notes: also called full-length gp55; wild-type protein
Does B1 bind [1]?
Result: binds

B2: bacteriophage T4 gp33 (coactivator) (natural protein)
chain: MTQFSLNDIRPVDETGLSEKELSIKKEKDEIAKLLDRQENGFIIEKMVEEFGMSYLEATTAFLEENSIPETQFAKFIPSGIIEKIQSEAIDENLLRPSVVRCEKTNTLDFLL
notes: source: E. coli BL21(DE3), pET28a-NH-gp33, purified (Ni-NTA, Mono Q, Superdex 200)
Which results are given for B2?
binding result [1]: binds; binding result [2]: binds

B3: T4 late promoter EMSA scaffold (dsDNA)
DNA 1: CTAATAAAGAGCTCAGCACTATTACTGAGAGTATAAATACTCCTGATACTGAAGCAGCCGGACT
DNA 2: AGTCCGGCTGCTTCAGTATCAGGAGTATTTATACTCTCAGTAATAGTGCTGAGCTCTTTATTAG
Does B3 bind [3]?
Result: binds
